Results taken from paper PMC1977788 (1992).

Tests used:
[1] = biological target: T1, EGFR (Homo sapiens, UniProt P00533); test: 125I-EGF whole-cell saturation binding, ZR-75-9a1 FCSdcc 4 weeks, Woolf analysis
[2] = biological target: T1, EGFR; test: 125I-EGF whole-cell saturation binding, ZR-75-9a1 8 uM cells, Woolf analysis
[3] = biological target: T1, EGFR; test: 125I-EGF whole-cell saturation binding, ZR-PR-LT cells, Woolf analysis
[4] = biological target: T1, EGFR; test: 125I-EGF whole-cell saturation binding, ZR-PR-LT cells + acid wash, Woolf analysis
[5] = biological target: T1, EGFR; test: 125I-EGF whole-cell saturation binding, ZR-75-9a1 FCSdcc 2 weeks, Woolf analysis
[6] = biological target: T1, EGFR; test: 125I-EGF whole-cell saturation binding, ZR-75-9a1 FCSdcc 2 years, Woolf analysis
[7] = biological target: T1, EGFR; test: 125I-EGF whole-cell saturation binding, ZR-75-9a1 FCSdcc 1 week, Woolf analysis
[8] = biological target: T1, EGFR; test: 125I-EGF whole-cell saturation binding, ZR-75-1 cells, Woolf analysis
[9] = biological target: T1, EGFR; test: 125I-EGF whole-cell saturation binding, ZR-PR-LT cells + suramin pretreatment, Woolf analysis

Kd [1]: 0.14 nM
Kd [2]: 0.19 nM
Kd [3]: 0.26 nM
Kd [4]: 0.21 nM
Kd [5]: 0.28 nM
Kd [6]: 0.18 nM
Kd [7]: 0.37 nM
Kd [8]: 0.23 nM
Kd [9]: 0.31 nM
B1: EGF (protein)
chain: NSYPGCPSSYDGYCLNGGVCMHIESLDSYTCNCVIGYSGDRCQTRDLRWWELR
